Experimental data: patent publication US20240263208A1, “CYTOCHROME P450 ENZYME” (HYPHA DISCOVERY LTD., priority 2021, published 2024)

Columns and labels:
Assay type in all cases: biochemical
[1] = Oxidase activity testing against valsartan; details: for Average % conversion: substrate Valsartan, Batch 2
Method: (§1) Lyophilised material of recombinant P450, ferredoxin and ferredoxin reductase proteins was made as described in Example 4 and reconstituted in high purity water to the original volume. Biocatalysis was performed with shaking incubation at 27° C. in the following conditions: 100 mM potassium phosphate pH 8.0, 5 mM MgCl2 (both present in the reconstituted enzyme preparation) and 0.1 mg/ml substrate compound such as ambroxide (Sigma-Aldrich, UK), carbamazepine (Sigma-Aldrich, UK), diclofenac (Sigma-Aldrich, UK), tivantinib (MedChemtronica, Sweden), clarithromycin (Tokyo Chemical Industry, Japan), sclareol (Sigma-Aldrich, UK), celecoxib (LC Laboratories, USA), buparvaquone (Sigma-Aldrich, UK), BIRB796 (MedChemExpress, USA), vanoxerine (CiVentiChem, USA), valsartan (Tokyo Chemical Industry, Japan), ruxolitinib (LC Laboratories, USA), perindopril (Selleckchem, USA), solifenacin (Key Organics, UK), 7-ethoxycoumarin (Tokyo Chemical Industry, Japan), tofacitinib (LC Laboratories, USA), ebastine (Key Organics, UK), efavirenz (Key Organics, UK), propanalol (Sigma-Aldrich, UK) and tolbutamide (Key Organics, UK).
(§2) Concentrations of P450, ferredoxin and ferredoxin reductase were as extracted (Example 4). Reactions were initiated by addition of 10× stock of cofactor mixture (50 mM G6P, 10 mM NADP+, 10 UN/ml G6PDH) to provide a final volume of e.g., 10 μl to 90 μl for 100 μl total reaction volumes. After 16-20 hours, reactions were extracted with an equal volume of acetonitrile, centrifuged to remove precipitated proteins and conversion assessed by UPLC-MS analysis.
(§3) UPLC Data were Obtained as Follows: • Column: Acquity UPLC BEH Shield RP18 1.7 μm 2.1 mm i.d. 50 mm length • Solvents: H2O, B: Acetonitrile, both with 0.1% Formic acid • Flow rate: 1.0 ml/min • Detector: Waters Acquity UPLC PDA (UV-Vis detection) and Waters Acquity UPLC QDA (MS)
(§4) Representative results for the % conversions of various substrates to products by enzymes with mutations at position T109 or L198 and double mutants at T109 and 1129/L198 are shown in Table 4 below.

[2] = Oxidase activity testing against BIRB796; details: substrate BIRB796; Batch 2
Method: as §1, §2, §3, §4

[3] = Oxidase activity testing against ebastine; details: for Average % conversion: substrate Ebastine, Batch 2
Method: as §1, §2, §3, §4

[4] = Oxidase activity testing against tolbutamide; details: for Average % conversion: substrate Tolbutamide, Batch 2
Method: as §1, §2, §3, §4

[5] = Oxidase activity testing against ruxolitinib; details: substrate Ruxolitinib; Batch 2
Method: as §1, §2, §3, §4

[6] = Oxidase activity testing against 7-ethoxycoumarin; details: for Average % conversion: substrate 7-ethoxycoumarin, Batch 2
Method: as §1, §2, §3, §4

[7] = Oxidase activity testing against perindopril; details: for Average % conversion: substrate Perindopril, Batch 2
Method: as §1, §2, §3, §4

[8] = Oxidase activity testing against vanoxerine; details: for Average % conversion: substrate Vanoxerine, Batch 2
Method: as §1, §2, §3, §4

[9] = Oxidase activity testing against tofacitinib; details: substrate Tofacitinib; Batch 2
Method: as §1, §2, §3, §4

[10] = Oxidase activity testing against propanalol; details: for Average % conversion: substrate Propanalol, Batch 2
Method: as §1, §2, §3, §4

[11] = Oxidase activity testing against efavirenz; details: for Average % conversion: substrate Efavirenz, Batch 2
Method: as §1, §2, §3, §4

[12] = Oxidase activity testing against celecoxib; details: substrate Celecoxib; Batch 2
Method: as §1, §2, §3, §4

[13] = Oxidase activity testing against solifenacin; details: for Average % conversion: substrate Solifenacin, Batch 2
Method: as §1, §2, §3, §4

[14] = Oxidase activity testing against sclareol; details: for Average % conversion: substrate Sclareol, Batch 2, UPLC-MS UV or MS peak areas
Method: as §1, §2, §3, §4

[15] = Oxidase activity testing against clarithromycin; details: for Average % conversion: substrate Clarithromycin, Batch 2
Method: as §1, §2, §3, §4

[16] = Oxidase activity testing against buparvaquone; details: for Average % conversion: substrate Buparvaquone, Batch 2
Method: as §1, §2, §3, §4

[17] = Oxidase activity testing, lyophilised recombinant P450/ferredoxin SeuF08/ferredoxin reductase SCF15A against ambroxide; details: for +16 Da (1.50 min) 253 m/z / +16 Da (1.60 min) 253 m/z / +16 Da (2.04 min) 253 m/z: oxidised ambroxide product; for +16 Da (1.50 min) 253 m/z / +16 Da (1.60 min) 253 m/z / +16 Da (2.04 min) 253 m/z / Ambroxide (2.22 min) 237 m/z: relative MS peak area; for Ambroxide (2.22 min) 237 m/z: remaining substrate, 0.1 mg/ml ambroxide, 27° C., 16-20 hours; for Average % conversion: substrate ambroxide, relative MS peak areas
Method: as §1, §2, §3
To confirm the identities of reaction products where known, their chromatographic retention time, mass and ultraviolet spectra were compared with those of authentic metabolite standards.
Representative results for the % conversions of ambroxide to oxidised (+16 Da) products for single point mutants at position T109 are shown in Table 2 below.

Molecule | Average % conversion [1] [%] | Average % conversion [2] [%] | Average % conversion [3] [%] | Average % conversion [4] [%] | Average % conversion [5] [%] | Average % conversion [6] [%] | Average % conversion [7] [%] | Average % conversion [8] [%] | Average % conversion [9] [%] | Average % conversion [10] [%] | Average % conversion [11] [%] | Average % conversion [12] [%] | Average % conversion [13] [%] | Average % conversion [14] [%] | Average % conversion [15] [%] | Average % conversion [16] [%] | +16 Da (1.50 min) 253 m/z [17] [%] | +16 Da (1.60 min) 253 m/z [17] [%] | +16 Da (2.04 min) 253 m/z [17] [%] | Ambroxide (2.22 min) 237 m/z [17] [%] | further results
M30: P450SeuC10 with L198F and T109F double mutations, SEQ ID NO: 126 (protein, SeuC10M30) MKIGTTHLTRLRGLSMTELTDITGPAAQAETVAFPQDRTCPYHPPTGYDPLRDGRPLSRVTLYDGREVWLVTAQATARALLADPRLSTDRRRDGFPVPTPRFAAGRDRFLALLGLDDPEHHRQRRLLIPSFTLKRATAQRPWIQRIVDELLDAMIARGPVADLVSAFALPVPSMVICELLGVPYADHEFFEEQSRRLFRGPTGADTTDARDRLEAYLGDLIDAKAKEAEPGDGILDDLVHNRLRAGELDRSVLVSLAVILLVAGHETTANMISLGTYTLLQHPERLAELRADPSLLPAVVEELLRMLSIAEGLQRLALEDIEIDGITIRAGEGVLFSTSVINRDTAVYEDPDDLDFHRADRHHVAFGFGIHQCLGQNLARAELEIALGSLFTRLPGLRLAAPAEEIPFKPGDTVQGMLELPVTW | 17.1 | 38.5 | 9.7 | 35.7 | 99.1 | 38 | 61.4 | 79.1 | 33.3 | 0 | 0 | 21.6 | 3 | 31 | 0.9 |  |  |  |  |  | conversion of perindopril compared to wild-type (in words) [7]: significantly increased conversion
M53: P450SeuC10 with T109P mutation, SEQ ID NO: 124 (protein, SeuC10M53) MKIGTTHLTRLRGLSMTELTDITGPAAQAETVAFPQDRTCPYHPPTGYDPLRDGRPLSRVTLYDGREVWLVTAQATARALLADPRLSTDRRRDGFPVPTPRFAAGRDRPLALLGLDDPEHHRQRRLLIPSFTLKRATAQRPWIQRIVDELLDAMIARGPVADLVSAFALPVPSMVICELLGVPYADHEFFEEQSRRLLRGPTGADTTDARDRLEAYLGDLIDAKAKEAEPGDGILDDLVHNRLRAGELDRSVLVSLAVILLVAGHETTANMISLGTYTLLQHPERLAELRADPSLLPAVVEELLRMLSIAEGLQRLALEDIEIDGITIRAGEGVLFSTSVINRDTAVYEDPDDLDFHRADRHHVAFGFGIHQCLGQNLARAELEIALGSLFTRLPGLRLAAPAEEIPFKPGDTVQGMLELPVTW | 14.3 | 36.3 | 17.4 | 77.6 | 98.6 | 67.2 | 46.5 | 44.5 | 67.5 |  | 1.8 | 39.1 | 33.6 | 52.7 |  | 54.7 |  |  |  |  | product at 1.38 minutes from ebastine ([3]; FIG. 9): increased production; conversion of tolbutamide compared to wild-type (in words) [4]: significantly increased conversion; conversion of 7-ethoxycoumarin compared to wild-type (in words) [6]: significantly increased conversion; conversion of buparvaquone compared to wild-type (in words) [16]: significantly increased conversion; product at 1.97 minutes from buparvaquone (hydroxylation of a t-butyl methyl group) ([16]; FIG. 8): increased production; conversion of solifenacin compared to wild-type (in words) [13]: significantly increased conversion
M32: P450SeuC10 with T109F and I259L double mutations, SEQ ID NO: 130 (protein, SeuC10M32) MKIGTTHLTRLRGLSMTELTDITGPAAQAETVAFPQDRTCPYHPPTGYDPLRDGRPLSRVTLYDGREVWLVTAQATARALLADPRLSTDRRRDGFPVPTPRFAAGRDRFLALLGLDDPEHHRQRRLLIPSFTLKRATAQRPWIQRIVDELLDAMIARGPVADLVSAFALPVPSMVICELLGVPYADHEFFEEQSRRLLRGPTGADTTDARDRLEAYLGDLIDAKAKEAEPGDGILDDLVHNRLRAGELDRSVLVSLAVLLLVAGHETTANMISLGTYTLLQHPERLAELRADPSLLPAVVEELLRMLSIAEGLQRLALEDIEIDGITIRAGEGVLFSTSVINRDTAVYEDPDDLDFHRADRHHVAFGFGIHQCLGQNLARAELEIALGSLFTRLPGLRLAAPAEEIPFKPGDTVQGMLELPVTW | 66.8 | 90.6 | 10.4 | 56.1 | 99.2 | 20.2 | 45.6 | 88.8 | 40.8 | 1.6 | 1.2 | 35.6 | 25.9 | 84.5 | 23.3 | 31.5 |  |  |  |  | conversion of valsartan compared to wild-type (in words) [1]: significantly increased conversion; conversion of vanoxerine compared to wild-type (in words) [8]: significantly increased conversion; conversion of propanalol, not converted by wild-type (in words) [10]: achieved conversion; conversion of efavirenz, not converted by wild-type (in words) [11]: achieved conversion; conversion of sclareol compared to wild-type (in words) [14]: significantly increased conversion; product at 1.42 minutes from sclareol ([14]; FIG. 7): increased production; product at 1.55 minutes from sclareol ([14]; FIG. 7): generated a new product; conversion of clarithromycin, not converted by wild-type (in words) [15]: achieved conversion; new product at 3.12 minutes (3″-O-demethylclarithromycin) from clarithromycin ([15]; chromatographic analysis, FIGS. 5 and 6): production of a new product
SeuC10M26: P450SeuC10 with T109I mutation, SEQ ID NO: 56 (protein, SeuC10M26) MKIGTTHLTRLRGLSMTELTDITGPAAQAETVAFPQDRTCPYHPPTGYDPLRDGRPLSRVTLYDGREVWLVTAQATARALLADPRLSTDRRRDGFPVPTPRFAAGRDRILALLGLDDPEHHRQRRLLIPSFTLKRATAQRPWIQRIVDELLDAMIARGPVADLVSAFALPVPSMVICELLGVPYADHEFFEEQSRRLLRGPTGADTTDARDRLEAYLGDLIDAKAKEAEPGDGILDDLVHNRLRAGELDRSVLVSLAVILLVAGHETTANMISLGTYTLLQHPERLAELRADPSLLPAVVEELLRMLSIAEGLQRLALEDIEIDGITIRAGEGVLFSTSVINRDTAVYEDPDDLDFHRADRHHVAFGFGIHQCLGQNLARAELEIALGSLFTRLPGLRLAAPAEEIPFKPGDTVQGMLELPVTW |  |  |  |  |  |  |  |  |  |  |  |  |  |  |  |  | 58.3 | 0.0 | 0.0 | 41.7 | Average % conversion [17]: 58.3%
SeuC10M27: P450SeuC10 with T109V mutation, SEQ ID NO: 58 (protein, SeuC10M27) MKIGTTHLTRLRGLSMTELTDITGPAAQAETVAFPQDRTCPYHPPTGYDPLRDGRPLSRVTLYDGREVWLVTAQATARALLADPRLSTDRRRDGFPVPTPRFAAGRDRVLALLGLDDPEHHRQRRLLIPSFTLKRATAQRPWIQRIVDELLDAMIARGPVADLVSAFALPVPSMVICELLGVPYADHEFFEEQSRRLLRGPTGADTTDARDRLEAYLGDLIDAKAKEAEPGDGILDDLVHNRLRAGELDRSVLVSLAVILLVAGHETTANMISLGTYTLLQHPERLAELRADPSLLPAVVEELLRMLSIAEGLQRLALEDIEIDGITIRAGEGVLFSTSVINRDTAVYEDPDDLDFHRADRHHVAFGFGIHQCLGQNLARAELEIALGSLFTRLPGLRLAAPAEEIPFKPGDTVQGMLELPVTW |  |  |  |  |  |  |  |  |  |  |  |  |  |  |  |  | 58.6 | 0.9 | 2.3 | 38.2 | Average % conversion [17]: 61.7%
